This passage reports Kd, koff and kon results from patent US20230242651A1 (published 2023).

For assay [1], the target named is T1, human interleukin-23 receptor (IL23R) (human, UniProt Q5VWK5 24-355, limits assumed).
T1 construct: also called human IL23R
T1 sequence (looked up): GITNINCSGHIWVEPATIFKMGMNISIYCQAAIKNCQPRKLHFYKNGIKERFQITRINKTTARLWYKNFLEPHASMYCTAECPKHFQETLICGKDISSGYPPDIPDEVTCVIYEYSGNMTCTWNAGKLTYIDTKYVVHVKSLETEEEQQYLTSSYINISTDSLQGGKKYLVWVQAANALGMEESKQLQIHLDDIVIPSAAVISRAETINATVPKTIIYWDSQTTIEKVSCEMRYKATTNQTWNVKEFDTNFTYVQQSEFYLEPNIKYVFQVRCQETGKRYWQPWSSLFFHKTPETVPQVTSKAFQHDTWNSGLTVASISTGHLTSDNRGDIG
Nature of the assay: SPR, scFv (summary table). The method in brief:
(§1)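 Humanized rabbit variable domains were made as single-chain variable fragments (scFv) on consensus germline framework pairs, with or without a λ-cap (Vκ framework IV replaced by a Vλ germline sequence). They were expressed in E. coli as inclusion bodies, solubilized and refolded in a generic refolding buffer. Affinity for human IL23R was measured by surface plasmon resonance, giving rate constants and dissociation constant, or the λ-capped over uncapped dissociation-constant ratio.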
For orientation: In SPR one partner is held on a chip, and binding of the other changes the refractive index at the surface.

For assay [2], the target named is T1, human interleukin-23 receptor (IL23R). Description: SPR, scFv. The method in brief:
as §1

B1: Vκ3/VH3 consensus (uncapped), human IL23R specific scFv (scFv)
scFv: DIVLTQSPATLSLSPGERATLSCQASENIYSFLAWYQQKPGQAPRLLIYSASKLAAGVPARFSGSGSGTDFTLTISSLEPEDFAVYYCQQTNRYSNPDIYNVFGQGTKVEIKRGGGGSGGGGSGGGGSGGGGSEVQLVESGGGLVQPGGSLRLSCAASGIDFNSNYYMCWVRQAPGKGLEWVSCIYVGSHVNTYYANWAKGRFTISRDNSKNTLYLQMNSLRAEDTAVYYCATSGSSVLYFKFWGQGTLVTVSS
notes: scFv VL-linker-VH, made in E. coli; Vκ framework IV (uncapped, full consensus); also called Vκ3VH3 uncapped
Broadly, the Kd is the free concentration of one partner at which half of the binding sites on the other are occupied at equilibrium, for simple one-to-one binding. Lower therefore signals a tighter complex. As a reminder, the koff is the rate constant with which the complex falls apart. A low value points to slow dissociation. Usually kon stands for the second-order rate constant of association. High values mean faster complex formation, low ones slower complex formation. With B1, the affinity in assay [1], expressed as Kd, was 0.0395 nM. In addition, in assay [2], the Kd stood at 0.0395 nM, the koff stood at 6.52e-05 s⁻¹ and the kon worked out at 1.65e+06 M⁻¹ s⁻¹.

B2: Vκ3/VH4 consensus (uncapped), human IL23R specific scFv (scFv)
scFv: DIVLTQSPATLSLSPGERATLSCQASENIYSFLAWYQQKPGQAPRLLIYSASKLAAGVPARFSGSGSGTDFTLTISSLEPEDFAVYYCQQTNRYSNPDIYNVFGQGTKVEIKRGGGGSGGGGSGGGGSGGGGSQVQLQESGPGLVKPSETLSLTCTVSGIDFNSNYYMCWIRQPPGKGLEWIGCIYVGSHVNTYYANWAKGRVTISVDTSKNQFSLKLSSVTAADTAVYYCATSGSSVLYFKFWGQGTLVTVSS
notes: scFv VL-linker-VH, made in E. coli; Vκ framework IV (uncapped, full consensus); also called Vκ3VH4 uncapped
Turning to B2, in assay [1], the Kd is 0.139 nM. In assay [2], this molecule had a Kd of 0.139 nM, a koff of 0.000263 s⁻¹ and a kon of 1.89e+06 M⁻¹ s⁻¹.

B3: Vκ3/VH6 consensus λ-capped, human IL23R specific scFv (scFv)
scFv: DIVLTQSPATLSLSPGERATLSCQASENIYSFLAWYQQKPGQAPRLLIYSASKLAAGVPARFSGSGSGTDFTLTISSLEPEDFAVYYCQQTNRYSNPDIYNVFGGGTKLTVLGGGGGSGGGGSGGGGSGGGGSQVQLQQSGPGLVKPSQTLSLTCAISGIDFNSNYYMCWIRQSPGRGLEWLGCIYVGSHVNTYYANWAKGRITINPDTSKNQFSLQLNSVTPEDTAVYYCATSGSSVLYFKFWGQGTLVTVSS
notes: scFv VL-linker-VH, made in E. coli; also called Vκ3VH6 capped
As to B3, in assay [1], binding was characterised by a dissociation constant (Kd) of 0.394 nM. In assay [2], this molecule showed a Kd of 0.394 nM, a koff of 0.000563 s⁻¹ and a kon of 1.43e+06 M⁻¹ s⁻¹.

B4: Vκ1/VH1A consensus (uncapped), human IL23R specific scFv (scFv)
scFv: DIQMTQSPSSLSASVGDRVTITCQASENIYSFLAWYQQKPGKAPKLLIYSASKLAAGVPSRFSGSGSGTDFTLTISSLQPEDFATYYCQQTNRYSNPDIYNVFGQGTKVEIKRGGGGSGGGGSGGGGSGGGGSQVQLVQSGAEVKKPGSSVKVSCKASGIDFNSNYYMCWVRQAPGQGLEWMGCIYVGSHVNTYYANWAKGRVTITADESTSTAYMELSSLRSEDTAVYYCATSGSSVLYFKFWGQGTLVTVSS
notes: scFv VL-linker-VH, made in E. coli; Vκ framework IV (uncapped, full consensus); also called Vκ1VH1A uncapped
Turning to B4, the equilibrium dissociation constant (Kd) in assay [1] worked out at 0.02 nM. For the same molecule, in assay [2], the Kd was found to be 0.02 nM, the off-rate constant (koff) was found to be 0.000128 s⁻¹ and the kon was 6.42e+06 M⁻¹ s⁻¹.

B5: Vκ1/VH1B consensus (uncapped), human IL23R specific scFv (scFv)
scFv: DIQMTQSPSSLSASVGDRVTITCQASENIYSFLAWYQQKPGKAPKLLIYSASKLAAGVPSRFSGSGSGTDFTLTISSLQPEDFATYYCQQTNRYSNPDIYNVFGQGTKVEIKRGGGGSGGGGSGGGGSGGGGSQVQLVQSGAEVKKPGASVKVSCKASGIDFNSNYYMCWVRQAPGQGLEWMGCIYVGSHVNTYYANWAKGRVTMTRDTSISTAYMELSSLRSEDTAVYYCATSGSSVLYFKFWGQGTLVTVSS
notes: scFv VL-linker-VH, made in E. coli; Vκ framework IV (uncapped, full consensus); also called Vκ1VH1B uncapped
Molecule B5 displayed a Kd in assay [1] of 0.168 nM. In assay [2], this molecule gave a Kd of 0.168 nM, a dissociation rate constant (koff) of 0.000413 s⁻¹ and a kon of 2.45e+06 M⁻¹ s⁻¹.

B6: Vκ3/VH5 consensus (uncapped), human IL23R specific scFv (scFv)
scFv: DIVLTQSPATLSLSPGERATLSCQASENIYSFLAWYQQKPGQAPRLLIYSASKLAAGVPARFSGSGSGTDFTLTISSLEPEDFAVYYCQQTNRYSNPDIYNVFGQGTKVEIKRGGGGSGGGGSGGGGSGGGGSEVQLVQSGAEVKKPGESLKISCKGSGIDFNSNYYMCWVRQMPGKGLEWMGCIYVGSHVNTYYANWAKGQVTISADKSISTAYLQWSSLKASDTAMYYCATSGSSVLYFKFWGQGTLVTVSS
notes: scFv VL-linker-VH, made in E. coli; Vκ framework IV (uncapped, full consensus); also called Vκ3VH5 uncapped
B6 gave a Kd in assay [1] of 0.525 nM. Further, in assay [2], binding was put at a Kd of 0.525 nM, the koff was found to be 0.000904 s⁻¹ and the kon amounted to 1.72e+06 M⁻¹ s⁻¹.
